From patent US20260234738A1

Molecular target: SARS-CoV-2 spike protein variant Y483A on VSV pseudoparticles (SARS-CoV-2) (UniProt P0DTC2)
Assay: cell-based or functional assay

Q: For mAb10987 (antibody), which Relative neutralization at 5 µg/ml is on record?
A: 99%
